Reference: the supplement of paper PMC10567573

B1: PRAME (parent)
chain: KKLKIFAMPMQDIKMILKMVQLDS
B2: KCTD10 (parent)
chain: SSKEEQKLIATSNKPAVKLLYNRS

Variants of: B1
Assay: protein stability index of a GFP-peptide fusion (GPS, HEK-293T) (PSI 1-6); higher = more stable
Conditions: c terminus: a fixed tail appended
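Also: lentivirally expressed fusions sorted by FACS into six bins by GFP to DsRed ratio, PSI derived from sequencing read proportions per bin multiplied by bin number.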

Protein stability index, by site and new letter:
L3: D 3.34, I 1.63, N 2.82, R 2.1, C 2.1, W 2.03, Y 4.33, S 2.92, M 4.28, E 1.06, H 3.6
M10: R 2.7, T 2.93, Y 2.52, C 2.5, V 3.74, E 3.14, H 2.12, D 2.39, N 2.7, Q 1.93, P 2.72, K 2.06, G 3.5, A 1.93
K4: P 2.85, F 2.44, N 1.6, C 2.4, H 4.52, I 3.41, W 2.87, E 2.02, G 4.41, T 3.69, A 2.11, V 3.08, S 3.49, Q 3.25, R 1.99, M 3.45, D 1.92
Q11: G 3.84, K 3.32, V 2.19, H 3.43, P 3.82, D 2.47, A 3.71, T 2.39, I 2.57, Y 3.22, W 3.08, R 4.36, M 2.31, L 2.85, S 2.52, F 3.43, C 2.32, N 2.79
D12: M 4.16, N 2.5, K 2.75, I 1.63, C 3.07, A 2.14, F 3.57, E 2.5, L 2.29
F6: G 2.55, R 3.11, A 2.77, N 1.3, K 2.72, T 2.2, W 4.71, M 1.84, Q 1.59, C 3.09, D 1.26, L 3.92, E 1.52
K2: R 1.59, M 1.79, N 4.46, V 2.36, Y 3.88, D 3.31, P 2.61, A 2.69, I 3.39, F 2.09, L 2.34, H 3.33, S 2.94, T 2.9, G 2.86, Q 3.53
P9: L 1.62, Y 1.43, T 4.36, H 2.22, V 2.94, W 4.76, C 2.96, F 2.42, I 2.11, N 1.79
M8: L 2.91, S 2.46, W 4.52, H 3.92, D 3.23, N 3.02, A 2.02, C 4.6, F 2.88, P 1.72, V 3.54, T 2.71, K 2.42, R 3.05, E 1.39
K1: T 3.61, R 3.39, C 2.92, S 3.56, V 2.08, F 4.97, L 2.86, A 3.05, E 2.31, P 3.89, Y 1.86, H 3.51, N 3.99, M 2.68, D 3.38, Q 2.55
I5: K 4.37, V 3.29, M 3.17, H 1.77, D 1.82, R 2.43, F 2.77, E 3.63, A 3.02, N 4.02, P 2.55, Y 2.6, T 2.5, C 2.65, G 4.35
A7: I 3.67, W 3.77, Y 4.92, R 2.61, C 2.66, K 3.26, S 3.04, P 2.85, G 1.38, H 2.52, V 2.83, Q 2, M 2.6, D 3.87, N 2.46

Variants of: B2
Assay: as above
Conditions: c terminus: a fixed tail appended

Protein stability index of substitutions, site by site:
S24: W 2.6, K 4.7, N 4.2, F 3.52, R 4.46, V 3.5, Y 3.48, P 4.09, T 4.21, C 3.25, D 4.45, E 4.55, M 3.52, Q 4.17, L 3.4, I 3.22, H 3.56, G 4.04, A 3.65
L19: Q 4.31, P 4.94, I 4.59, D 4.62, Y 4.56, E 4.44, F 4.12, K 4.69, S 4.18, V 4.25, W 3.35, A 4.59, H 4.41, N 4.72, T 4.95, G 4.13, M 4.59, R 4.29, C 4.39
K18: G 4.02, V 3.13, D 4.25, M 3.45, Y 3.03, T 3.74, W 2.4, R 4.33, F 2.83, N 4.26, C 4.21, Q 4.39, L 3.25, P 4.25, A 4.05, H 3.89, E 4.34, I 2.34, S 4.39
V17: Q 4.52, L 4.02, F 2.74, K 4.61, S 4.3, R 3.94, P 4.31, T 4.28, M 3.97, N 4.76, I 4.02, H 4.35, D 4.41, Y 3.51, W 3.39, A 4.34, C 4.21, E 4.15, G 4.3
A16: Q 4.19, V 3.89, S 4.2, T 4.1, Y 3.56, R 3.8, K 4.33, N 4.19, I 3.97, L 3.54, W 2.94, P 3.95, M 3.84
Y21: I 4.13, G 4.97, N 4.58, C 4.73, Q 4.46, T 4.54, A 4.33, V 3.67, W 4.05, F 3.75, S 4.33, L 4.06, E 4.25, K 4.68, H 4.46, R 4.42, D 4.93, P 4.07, M 4.18
N22: V 3.54, A 3.84, Y 2.96, P 3.83, M 2.92, C 3.7, D 4.55, F 3.17, G 4, E 4.22, T 4.12, K 4.16, L 3.14, I 2.71, S 3.41, H 4.01, Q 4.09, W 2.73, R 4.15
R23: C 3.76, E 4.63, V 3.74, T 3.7, K 4.29, Q 4.01, F 3.29, S 4.13, N 4.21, M 3.35, P 4.21, L 3.03, I 3.37, D 4.71, A 3.99, W 3.15, G 3.75, Y 3.32, H 3.85
L20: W 3.35, K 4.53, D 4.53, M 4.11, Y 3.82, A 4.89, P 4.98, G 4.73, S 4.35, T 4.72, F 3.95, Q 4.28, C 3.79, R 4.46, H 4.48, E 3.98, N 4.37, I 4.6, V 4.09
